Results from paper PMC11670205 (Frontiers in Immunology, 2024).

What was measured:
[1] = target: human TSLP receptor complex composed of IL-7Rα and TSLPR expressed on cell surface of transfected HEK293T (human) (UniProt Q9HC73)
[2] = target: T1, recombinant cynomolgus monkey TSLP (Macaca fascicularis, UniProt A0A7N9CAT7); assay: ELISA; recombinant TSLP coated at 1 μg/mL in DPBS pH 7.2 overnight at 4°C; antibodies in serial 3-fold dilutions from 1 μg/mL, 2 hours at room temperature; HRP anti-human IgG detection; conditions: both partners purified
T1 construct: thymic stromal lymphopoietin, cynomolgus monkey; source: bought: AcroBiosystems

recombinant mouse TSLP = target: T2, recombinant mouse TSLP (Mus musculus, UniProt Q9JIE6); assay: as above; conditions: both partners purified
T2 construct: thymic stromal lymphopoietin, mouse; also called murine TSLP; source: bought: AcroBiosystems
T2 sequence (Q9JIE6 20-140): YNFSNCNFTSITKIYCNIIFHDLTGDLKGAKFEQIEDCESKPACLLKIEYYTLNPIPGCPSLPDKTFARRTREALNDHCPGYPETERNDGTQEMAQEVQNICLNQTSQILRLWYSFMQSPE

Sequence of human TSLP receptor complex composed of IL-7Rα and TSLPR expressed on cell surface of transfected HEK293T (human) (Q9HC73 23-371, chain 1 of 2): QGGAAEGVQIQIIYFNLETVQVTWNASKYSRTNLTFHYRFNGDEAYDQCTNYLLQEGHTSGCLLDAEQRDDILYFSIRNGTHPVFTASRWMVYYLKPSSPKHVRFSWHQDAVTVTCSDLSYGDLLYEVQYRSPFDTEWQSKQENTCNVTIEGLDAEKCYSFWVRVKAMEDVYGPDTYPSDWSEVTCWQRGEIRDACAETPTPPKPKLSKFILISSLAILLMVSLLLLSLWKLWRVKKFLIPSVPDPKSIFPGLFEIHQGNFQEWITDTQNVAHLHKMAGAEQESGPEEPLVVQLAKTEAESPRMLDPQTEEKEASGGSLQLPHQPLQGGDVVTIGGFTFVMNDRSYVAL
Sequence of human TSLP receptor complex composed of IL-7Rα and TSLPR expressed on cell surface of transfected HEK293T (human) (chain, as listed by the source, chain 2 of 2): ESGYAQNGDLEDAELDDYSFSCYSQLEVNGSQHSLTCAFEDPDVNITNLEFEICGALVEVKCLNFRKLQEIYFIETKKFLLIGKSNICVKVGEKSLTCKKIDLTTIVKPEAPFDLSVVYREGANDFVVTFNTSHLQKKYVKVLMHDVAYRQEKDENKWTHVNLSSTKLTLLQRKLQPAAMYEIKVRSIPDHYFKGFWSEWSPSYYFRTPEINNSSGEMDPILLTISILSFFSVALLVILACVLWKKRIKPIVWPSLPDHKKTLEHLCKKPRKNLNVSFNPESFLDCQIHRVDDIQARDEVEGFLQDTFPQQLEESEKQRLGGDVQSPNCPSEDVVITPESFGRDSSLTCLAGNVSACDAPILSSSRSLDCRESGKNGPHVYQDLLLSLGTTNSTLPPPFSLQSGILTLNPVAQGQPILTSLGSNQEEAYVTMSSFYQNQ

| EC50 of TSLP-driven STAT5 luciferase reporter gene expression in HEK293T cells transfected with TSLPR and IL-7Rα [1] [ng/mL] | binding result [2] | binding result (recombinant mouse TSLP) | Molecule |
| --- | --- | --- | --- |
| 1.1 |  |  | recombinant human thymic stromal lymphopoietin (from UniProt Q969D9 29-159) (ligand) |
|  | binds | no binding (tested: 1 μg/mL) | tezepelumab analogue antibody (antibody, V domains shown, heavy chain of tezepelumab as deposited in PDB 5J13; rest of the heavy chain constant region (hinge, Fc) beyond what the PDB entry holds; light chain of tezepelumab as deposited in PDB 5J13; It was captured by anti-Fc probes and detected with anti-human IgG; also called AMG157; MEDI9929; source: Expi293F, transfected, purified (MabSelect SuRe, desalting column)) VH: QMQLVESGGGVVQPGRSLRLSCAASGFTFRTYGMHWVRQAPGKGLEWVAVIWYDGSNKHYADSVKGRFTITRDNSKNTLNLQMNSLRAEDTAVYYCARAPQWELVHEAFDIWGQGTMVTVSS VL: SYVLTQPPSVSVAPGQTARITCGGNNLGSKSVHWYQQKPGQAPVLVVYDDSDRPSWIPERFSGSNSGNTATLTISRGEAGDEADYYCQVWDSSSDHVVFGGGTKLTVL |
